# From US8951792B2, “Methods for making definitive endoderm hepatocyte (DE-hep) progenitor cells” (Cellartis AB, priority 2007, dated 2015)
# Key:
# hBS cells = assay: Sox17/Sox7 immunostaining of induced definitive endoderm; format: cell-based, human; conditions: after 4 days in Activin A
# Excerpt: We used Activin A, and Activin A in combination with Wnt3a and/or FGF2 to generate DE. After 4 to 5 days in Stage 1 the hBS cell colony differentiated and genetic markers for early DE were examined using quantitative real-time real time-PCR (Q-PCR). Activin A induced a strong wave of early endoderm at day 3 to 5, and was highlighted by high expression levels of Sox17, HNF3beta (HNF3b or HNF3b) and Cxcr4 expression (FIG. 4) and then reduced to near baseline levels (data not shown). […] Furthermore they up regulate early liver markers like AFP or AAT. At this early stage in differentiation and development, this indicates the presence of extraembryonic endoderm (E×E) in intrinsically differentiating colonies (FIGS. 5 and 10). The expression data were confirmed by co-staining of Sox17/Sox7, Sox17/Cxcr4, Sox17/Oct4, Sox7/HNF3b (data not shown). […] The changes of gene expression after Activin A treatment were associated to morphological changes and distinct differentiation pattern of the colonies (FIG. 2). After 4 to 5 days induction with Activin A containing medium cells gathered together and formed a ring of epithelial cells around the colony. […]
# Activin A induces definitive endoderm detected by a combination of Sox17+/Sox7-, 80-90% of the total cells in a Activin A or Activin A/FGF2 treated culture are estimated to be Sox17 positive and negative for Sox7 (manual counting in microscope). […]
# hESC line SA002 = assay: Substituting Activin A with Activin B for induction of endoderm, real-time PCR; format: cell-based, human; conditions: 100 ng/ml with 5 ng/ml bFGF, 5 days
# Description: Undifferentiated hESC line SA002 were exposed to either activin A (100 ng/ml) or activin B (100 ng/ml) in the presence of 5 ng/ml bFGF for 5 days and analyzed for gene expression.
# mRNA expression of Foxa2, Sox17, CXCR4, Sox7, CDX2, MT was measured by real-time PCR using the ABI/TaqMan method. In short, RNA was isolated from the cell cultures by using Qiagen's RNeasy system. cDNA was synthesized by using the ABI high capacity cDNA synthesis kit. RT-PCR was performed in a ABI 7500 by using TaqMan probe. The expression level was normalized to CREBBP expression.
Molecule,remaining cells Sox17 positive (hBS cells),"extraembryonal (ExE) markers Sox7, CDX2 and MT compared to activin A (hESC line SA002)","mRNA expression of endodermal markers Foxa2, Sox17 and CXCR4 compared to activin A (hESC line SA002)"
"Activin A (protein, UniProt P08476 311-426, looked up, TGF-beta family member used at 100 ng/ml to induce definitive endoderm) Inhibin beta A chain: GLECDGKVNICCKKQFFVSFKDIGWNDWIIAPSGYHANYCEGECPSHIAGTSGSSLSFHSTVINHYRMRGHSPFANLKSCCVPTKLRPMSMLYYDDGQNIIKKDIQNMIVEECGCS",more than 70%,,
"Activin B (protein, UniProt P09529 293-407, looked up) Inhibin beta B chain: GLECDGRTNLCCRQQFFIDFRLIGWNDWIIAPTGYYGNYCEGSCPAYLAGVPGSASSFHTAVVNQYRMRGLNPGTVNSCCIPTKLSTMSMLYFDDEYNIVKRDVPNMIVEECGCA",,the same or lower,either the same or even higher
